According to US20240092922A1 (EUCURE BEIJING BIOPHARMA, published 2024):

Biological target: T1, Histidine-tagged human 4-1BB protein (h4-1BB-His) (human, UniProt Q07011 24-186)
T1 construct: not shown: histidine tag
Assay: SPR (Biacore T200), antibody on Protein A chip, h4-1BB-His injected;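 also: dissociation phase followed for 300 s, Kd derived as koff divided by kon from the kinetic fit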

| Binder | Kd | koff | kon |
| --- | --- | --- | --- |
| 45-8E11-mHvKv-IgG2 (antibody, V domains shown) VH: EVQLQQSGTVLARPGASVKMSCKASGYSFTSNWMHWVKQRPGQGLEWIGVIYPGNSDTSYNQKFKGKAKLTAVTSASTAYMELSSLTNEDSAVYYCTRGITTAPEYWGQGTTLTVSS VL: NIVMTQSPKSMSMSVGERVTLSCKASENVGIYVSWYQQKPEQSPKLLIYGASNRYTGVPDRFTGSGSATDFTLTISSVQPEDLADYHCGHTYNYPFTFGSGTKLEIK | 0.597 nM | 0.000127 s⁻¹ | 214000 M⁻¹ s⁻¹ |
| 45-8F1-mHvKv-IgG2 (antibody, V domains shown) VH: EVQLQQSGTVLARPGASVKMSCKASGYSFTSYWMHWVKQRPGQGLEWIGVIYPGNSDTSYNQKFKGKAKLTAVTSASTAYMDLSSLTNEDSAVYYCTRGITTAPDYWGQGTTLTVSS VL: NIVMTQSPKSMSMSVGERVTLSCKASENVGIHVSWYQQKPEQSPKLLIYGASSGYNGVPDRFTGSGSATDFTLTISSVQPEDLADYHCGQTYSYPFTFGSGTKLEIK | 62.3 nM | 0.00293 s⁻¹ | 47000 M⁻¹ s⁻¹ |
| 56-2A6-mHvKv-IgG2 (antibody, V domains shown) VH: QIQLVQSGPELKKPGETVKISCKASGYTFTNYGMNWVKQAPGKGFKWMGWINTYTGEPTYADDFKGRFAFSLEISASTAYLQINNLKNEDTATYFCARRDYLGAMDYWGQGTSVTVSS VL: ENVLTQSPAIMSASPGEKVTMTCRASSSVSSSYLHWYQQKSGASPKLWIYSTSNLASGVPARFSGSGSGTSYSLTISSVEAEDAATYYCQQYSAYLYTFGGGTKLEIK | 14 nM | 0.00141 s⁻¹ | 101000 M⁻¹ s⁻¹ |
| 70-6F10-mHvKv-IgG2 (antibody, V domains shown) VH: QVQLQQSGPELVKPGASVKISCKASGYAFNNSWMNWVKQRPGQGLEWIGRIYPGDGDTDYNGKFKGKATLTADKSSSTAYMQLSSLTSVDSAVYFCARLDGNYYYWYFDVWGAGTTVTVSS VL: not shown | 10.9 nM | 0.000263 s⁻¹ | 24100 M⁻¹ s⁻¹ |
| 45-7E9-mHvKv-IgG2 (antibody, V domains shown) VH: QVQLKQSGPGLVQPSQSLSITCTVSGFSLTTYGVHWVRQPPGKGLEWLGVIWSDGNTDYNDAFISRLSITKDNSTSQVFFKMNGLQADDTAIYYCARNSITSVSFDCWGQGTTLTVSS VL: DIVMTQSQKFMSTSVGDRVSVTCKASQNVGTTVAWYQQRPGQSPKALICSASYRYSGVPDRFTGSGSGTDFTLTISNVQSEDLAEYFCQQYNSYPLTFGSGTKLEIK | 15.3 nM | 0.00916 s⁻¹ | 600000 M⁻¹ s⁻¹ |
| 16-1C4-mHvKv-IgG4 (antibody, V domains shown) VH: QGQMQQSGAELVKPGASVKLSCKTSGFTFSSSYINWLKQKPGQSLEWIAWIFAGTGGTYYNQKFTGKAQLTVDTSSGTAYMQFSSLTTEDSAIYYCARHSPRATLFDFWGQGTTLTVSS VL: QIVLSQSPAILSASPGEKVTMTCRASSSVNHMHWYQQRTGFSPKAWIYATSNLASGVPARFSGSGSGTSYSLTISRVEAEDAATYYCQQWSSNPYTFGGGTKLEIK | 20.5 nM | 0.000502 s⁻¹ | 24400 M⁻¹ s⁻¹ |
| 54-8B11-mHvKv-IgG2 (antibody, V domains shown) VH: QIQLVQSGPELKKPGETVKISCKASKFTFTNYGMNWVKQAPGKALKWMGWINTYTGEPTYADDFKGRFDFSLETSATTAYLQINNLKNEDTATYFCARREYYPWVFVYWGQGTLVTVSA VL: ENVLTQSPAIMSASPGEKVTMTCSASSSVSYMHWYQQKSSTSPKLWIYDTSKLASGVPGRFSGSGSGNSYSLTISSMEAEDVATYYCFQGSGYPLTFGGGTKLEIK | 12 nM | 0.00502 s⁻¹ | 417000 M⁻¹ s⁻¹ |
| 45-4B9-mHvKv-IgG2 (antibody, V domains shown) VH: EVQLQQSGPELVKPGASVKMSCKASGYTFTTYVMYWVKQRPGQGLEWIGYINPYNDDIRYNEKFKGKATLTSDRSSSTAYMELSSLTSEDSAVYLCARQGGDYWGQGTILTVSS VL: DVQITQSPSYLAASPGETITVNCRASKNINKYLAWYQEKPGKTNKLLIYSGSTLQSGIPSRFSGSGSGTDFTLTISSLEPEDFAVYHCQQYNEYPLTFGAGTKLEMK | 110 nM | 0.00298 s⁻¹ | 27200 M⁻¹ s⁻¹ |
| 30-5F9-mHvKv-IgG4 (antibody, V domains shown) VH: QVQLKESGPGLVAPSQSLSITCTVSGFSLTTYDISWVRQPPGKGLEWLGVIWTGGGTNYNSSFMSRLSISKDNSKNQVFLKMNSLQVDDTAIYYCERVDYWGQGTTLTVSS VL: DVVMTQTPLSLPVSLGDQASISCRSSQSLVHSNGNTYLHWYLQKPGQSPKLLIYKVSNRFSGVPDRFSGSGSGTAFTFKISRVEAEDLGVYFCSQNTHVPWTFGGGTKLEIK | 9.91 nM | 0.00247 s⁻¹ | 249000 M⁻¹ s⁻¹ |
| 1C4-H2K3-IgG4 (antibody, V domains shown, humanized) VH: QVQMVQSGAEVKKPGASVKLSCKASGFTFSSSYINWLRQAPGQSLEWIGWIFAGTGGTYYNQKFTGRVQITRDTSASTAYMELSSLRSEDTAIYYCARHSPRATLFDFWGQGTTLTVSS VL: EIVLTQSPATLSLSPGERATMSCRASSSVNHMHWYQQKPGFSPRAWIYATSNLASGIPARFSGSGSGTSFTLTISSLEPEDFATYYCQQWSSNPYTFGGGTKLEIK | 17.6 nM | 0.000502 s⁻¹ | 28500 M⁻¹ s⁻¹ |
| 1C4-H1K1-IgG4 (antibody, V domains shown, humanized; also called 1C4-IgG4-H1K1) VH: QVQMVQSGAEVKKPGASVKLSCKASGFTFSSSYINWLRQAPGQRLEWMGWIFAGTGGTYYNQKFTGRVTITRDTSASTAYMELSSLRSEDTAIYYCARHSPRATLFDFWGQGTTLTVSS VL: EIVLTQSPATLSLSPGERATLSCRASSSVNHMHWYQQKPGQAPRALIYATSNLASGIPARFSGSGSGTSFTLTISSLEPEDFAVYYCQQWSSNPYTFGGGTKLEIK | 23.1 nM | 0.000616 s⁻¹ | 26700 M⁻¹ s⁻¹ |
| 1C4-H1K2-IgG4 (antibody, V domains shown, humanized) VH: QVQMVQSGAEVKKPGASVKLSCKASGFTFSSSYINWLRQAPGQRLEWMGWIFAGTGGTYYNQKFTGRVTITRDTSASTAYMELSSLRSEDTAIYYCARHSPRATLFDFWGQGTTLTVSS VL: EIVLTQSPATLSLSPGERATLSCRASSSVNHMHWYQQKPGQAPRALIYATSNLASGIPARFSGSGSGTSFTLTISSLEPEDFATYYCQQWSSNPYTFGGGTKLEIK | 22 nM | 0.000605 s⁻¹ | 27500 M⁻¹ s⁻¹ |
| 55-8F6-mHvKv-IgG2 (antibody, V domains shown) VH: QVQLQQPGAELVRPGASVKLSCKASGYIFTSYWINWVKQRPGQGLEWIGNIYPSDSYTNYNQKFKDKATLTVDKSSSTAYMQLSSPTSEDSAVYYCTRFHYGSSPFDNWGQGTTLTVSS VL: DIQMTQSTSSLSASLGDRVTISCRASQDISHYLNWYQQKPDGTVKLLIYYTSRLHSGVPSRFSGSGSGTDYSLTISNLEQEDFATYFCQQGHTLPRTFGGGTKLEIK | 2.18 nM | 0.00341 s⁻¹ | 1.57e+06 M⁻¹ s⁻¹ |
| 45-2B3-mHvKv-IgG2 (antibody, V domains shown) VH: QVQLQQSGPELVKPGASVKISCKTSGYAFSTSWMNWVKQRPGQGLEWIGRIYPGDGDTDYNGRFKGKATLTADKSSSTAYLQLSSLTSVDSAVYFCARLDGYYEVFYFDYWGQGTTLTVSS VL: not shown | 4.96 nM | 0.000138 s⁻¹ | 27700 M⁻¹ s⁻¹ |
| 45-7G9-mHvKv-IgG2 (antibody, V domains shown) VH: QVQLQQPGSALVRPGASVKLSCKASGYTFSNYWIHWVKQRHGQGLEWIGNIYPASDYTNYDEKFKNKGTLTVDTSSSTAYMHLSSLTSEDSAVYYCSRGYFGSLDYWGQGTSVTVSA VL: DILLTQSPAILSVNPGERVSFSCRASQPIGTGIHWYQQRTNGSPRLLIKSASESISGIPSRFSGSGSGTDFTLTINNVESDDVGDYYCQQSYSWPTTFGGGTKLKIN | 23.1 nM | 0.0041 s⁻¹ | 177000 M⁻¹ s⁻¹ |

Other lines, results leading:

| Kd | koff | kon | Binder |
| --- | --- | --- | --- |
| 0.45 nM | 0.000521 s⁻¹ | 1.16e+06 M⁻¹ s⁻¹ | 69-3C2-mHvKv-IgG2 (antibody, V domains shown) VH: DVQLVESGGGLVQPGGSRKLSCAASGFSFSSFGMHWMRQAPEKGLEWVAYISSGSSAIYYADTVKGRFTISRDNPKNTLFLQMTSLRSEDTAMYYCARDWVDYWGQGTTLTVSS VL: DIQMTQSPASLSVSVGETVTITCRASENIYSNLVWYQQKQGKSPQLLVYTATKLTNGVPSRFSGSGSGTQYSLKINSLQSEDFGTYYCQHFWDTPYTFGGGTKLEMK |
| 0.359 nM | 0.000513 s⁻¹ | 1.43e+06 M⁻¹ s⁻¹ | 61-6A7-mHvKv-IgG2 (antibody, V domains shown) VH: EVQLQQSGAELVRPGALVKLSCKASGFNIKDYYMHWVKRRPEQGLEWIGWIDPENGNTIYDPKFQDKASITADTSSNTAYLQLSSLTSEDTAVYYCAEGLPWYFDYWGQGTTLTVSS VL: QIILTQSPALMSASPGEKVTMTCSASSSVSDMNWYQQKPRSSPTPWIYLTSNLSSGVPDRFSGSGSGTSYSLTISSMEAEDAATYYCQQWSGNPLTFGAGTRLELK |
| 1.28 nM | 0.000413 s⁻¹ | 323000 M⁻¹ s⁻¹ | 45-8E2-mHvKv-IgG2 (antibody, V domains shown) VH: EVKLLESGGGLVQPGGSLKLSCAASGFDFSRYWMSWVRQAPGKGLEWIGEIHPDSSAINYTPSLKDKFIISRDNAKNTLYLQMSKVRSEDTALYYCARSYYGRVFDYWGQGTTLTVSS VL: DIVMTQSPATLSVTPGDRVSLSCRASQSISDYLHWYQQKSHESPRLLIKYASQSISGIPPRFSGSGSGSDFTLSINSVEPEDVGMYYCQDGHSFPPTFGAGTKLELK |
| 0.313 nM | 0.000331 s⁻¹ | 1.06e+06 M⁻¹ s⁻¹ | 59-5E4-mHvKv-IgG2 (antibody, V domains shown) VH: QVQLQQPGAELVRPGASVKLSCKASGYTFTTYWINWVRQRPGQGLEWIGNIYPSDSYTNYNQKFKDKASLTVDKSSNTAYMQLSSPTSEDSAVYYCAREAGDGTHYYAIDYWGQGTSVTVSS VL: NIVMTQSPKSMSMSVGERVTLSCKASENVGTYVSWYQQKPEQSPKLLIYGASNRYPGVPDRFTGSGSATDFTLTISSLQAEDLADYHCGQGYSYLRTFGGGTNLEIK |
| 0.16 nM | 0.000159 s⁻¹ | 999000 M⁻¹ s⁻¹ | 70-3F9-mHvKv-IgG2 (antibody, V domains shown) VH: QVQLQQPGAELVRPGASVKLSCKASGYTFTSYWINWVKQRPGQGLEWIGNIFPSDSYTNYNQKFKDRAKLTVDKSSSTAYMQLSSPTSEDSAVYYCTRFGSSGYPDYYTMEYWGQGTSVTVSS VL: DIQMTQSPASLSASVGETVTITCRASGNIDNYLAWYQQKQGKSPQLLVYNAKTLAEGVPSRFSGSGSGTEYSLKINSLQPEDFGSYHCQQYWTIPYTFGGGTKLEIK |
| 0.371 nM | 0.000715 s⁻¹ | 1.93e+06 M⁻¹ s⁻¹ | 29-6A5-mHvKv-IgG2 (antibody, V domains shown) VH: QVQLQQPGAELVRPGASVKLSCKASGYTFSSYWINWVKQRPGQGLEWIGNIYPSDSYTNYNQKFKDKATLTVDKSSSTAYMQLSSPTSDDSAVYYCTRTWEFYYDSVFDYWGQGTTLTVSS VL: DIKMTQSPSSMYASLGERVTITCKASQDINSYLSWFQQKPGKSPKTLIYRANRLVDGVPSRFSGSGSGQDYSLTISSLEYEDMGIYYCLQYDELPPTFGGGTKLEIK |
